Laboratory results reported in patent publication US20210403549A1 (YALE UNIVERSITY, published 2021).
fluorescein = fluorescein (fluorescent label)

B1: Fc-tagged ectodomain of LDLR (Fc fusion, not shown: a dimerising Fc or GST)
chain: not shown
notes: extracellular domain; also called LDLR^ecto
B2: fluorescein labelled ApoB100 peptide Site 1, GQDDCTGDEDYTYLIL (peptide)
peptide: fluorescein-GQDDCTGDEDYTYLIL-NH2
notes: also called HPLC purified fluorescein labelled peptide

How the values were obtained:
[1] = biological target: T1, low density lipoprotein (LDL) (UniProt P04114 28-4563); experiment: SPR, LDL immobilized, Fc-tagged ectodomain as analyte; LDLR ectodomain as analyte
T1 construct: Lipoprotein particle, not a pure protein; also called DiI-LDL (fluorescently labeled)
T1 sequence (P04114 28-4563 limits assumed): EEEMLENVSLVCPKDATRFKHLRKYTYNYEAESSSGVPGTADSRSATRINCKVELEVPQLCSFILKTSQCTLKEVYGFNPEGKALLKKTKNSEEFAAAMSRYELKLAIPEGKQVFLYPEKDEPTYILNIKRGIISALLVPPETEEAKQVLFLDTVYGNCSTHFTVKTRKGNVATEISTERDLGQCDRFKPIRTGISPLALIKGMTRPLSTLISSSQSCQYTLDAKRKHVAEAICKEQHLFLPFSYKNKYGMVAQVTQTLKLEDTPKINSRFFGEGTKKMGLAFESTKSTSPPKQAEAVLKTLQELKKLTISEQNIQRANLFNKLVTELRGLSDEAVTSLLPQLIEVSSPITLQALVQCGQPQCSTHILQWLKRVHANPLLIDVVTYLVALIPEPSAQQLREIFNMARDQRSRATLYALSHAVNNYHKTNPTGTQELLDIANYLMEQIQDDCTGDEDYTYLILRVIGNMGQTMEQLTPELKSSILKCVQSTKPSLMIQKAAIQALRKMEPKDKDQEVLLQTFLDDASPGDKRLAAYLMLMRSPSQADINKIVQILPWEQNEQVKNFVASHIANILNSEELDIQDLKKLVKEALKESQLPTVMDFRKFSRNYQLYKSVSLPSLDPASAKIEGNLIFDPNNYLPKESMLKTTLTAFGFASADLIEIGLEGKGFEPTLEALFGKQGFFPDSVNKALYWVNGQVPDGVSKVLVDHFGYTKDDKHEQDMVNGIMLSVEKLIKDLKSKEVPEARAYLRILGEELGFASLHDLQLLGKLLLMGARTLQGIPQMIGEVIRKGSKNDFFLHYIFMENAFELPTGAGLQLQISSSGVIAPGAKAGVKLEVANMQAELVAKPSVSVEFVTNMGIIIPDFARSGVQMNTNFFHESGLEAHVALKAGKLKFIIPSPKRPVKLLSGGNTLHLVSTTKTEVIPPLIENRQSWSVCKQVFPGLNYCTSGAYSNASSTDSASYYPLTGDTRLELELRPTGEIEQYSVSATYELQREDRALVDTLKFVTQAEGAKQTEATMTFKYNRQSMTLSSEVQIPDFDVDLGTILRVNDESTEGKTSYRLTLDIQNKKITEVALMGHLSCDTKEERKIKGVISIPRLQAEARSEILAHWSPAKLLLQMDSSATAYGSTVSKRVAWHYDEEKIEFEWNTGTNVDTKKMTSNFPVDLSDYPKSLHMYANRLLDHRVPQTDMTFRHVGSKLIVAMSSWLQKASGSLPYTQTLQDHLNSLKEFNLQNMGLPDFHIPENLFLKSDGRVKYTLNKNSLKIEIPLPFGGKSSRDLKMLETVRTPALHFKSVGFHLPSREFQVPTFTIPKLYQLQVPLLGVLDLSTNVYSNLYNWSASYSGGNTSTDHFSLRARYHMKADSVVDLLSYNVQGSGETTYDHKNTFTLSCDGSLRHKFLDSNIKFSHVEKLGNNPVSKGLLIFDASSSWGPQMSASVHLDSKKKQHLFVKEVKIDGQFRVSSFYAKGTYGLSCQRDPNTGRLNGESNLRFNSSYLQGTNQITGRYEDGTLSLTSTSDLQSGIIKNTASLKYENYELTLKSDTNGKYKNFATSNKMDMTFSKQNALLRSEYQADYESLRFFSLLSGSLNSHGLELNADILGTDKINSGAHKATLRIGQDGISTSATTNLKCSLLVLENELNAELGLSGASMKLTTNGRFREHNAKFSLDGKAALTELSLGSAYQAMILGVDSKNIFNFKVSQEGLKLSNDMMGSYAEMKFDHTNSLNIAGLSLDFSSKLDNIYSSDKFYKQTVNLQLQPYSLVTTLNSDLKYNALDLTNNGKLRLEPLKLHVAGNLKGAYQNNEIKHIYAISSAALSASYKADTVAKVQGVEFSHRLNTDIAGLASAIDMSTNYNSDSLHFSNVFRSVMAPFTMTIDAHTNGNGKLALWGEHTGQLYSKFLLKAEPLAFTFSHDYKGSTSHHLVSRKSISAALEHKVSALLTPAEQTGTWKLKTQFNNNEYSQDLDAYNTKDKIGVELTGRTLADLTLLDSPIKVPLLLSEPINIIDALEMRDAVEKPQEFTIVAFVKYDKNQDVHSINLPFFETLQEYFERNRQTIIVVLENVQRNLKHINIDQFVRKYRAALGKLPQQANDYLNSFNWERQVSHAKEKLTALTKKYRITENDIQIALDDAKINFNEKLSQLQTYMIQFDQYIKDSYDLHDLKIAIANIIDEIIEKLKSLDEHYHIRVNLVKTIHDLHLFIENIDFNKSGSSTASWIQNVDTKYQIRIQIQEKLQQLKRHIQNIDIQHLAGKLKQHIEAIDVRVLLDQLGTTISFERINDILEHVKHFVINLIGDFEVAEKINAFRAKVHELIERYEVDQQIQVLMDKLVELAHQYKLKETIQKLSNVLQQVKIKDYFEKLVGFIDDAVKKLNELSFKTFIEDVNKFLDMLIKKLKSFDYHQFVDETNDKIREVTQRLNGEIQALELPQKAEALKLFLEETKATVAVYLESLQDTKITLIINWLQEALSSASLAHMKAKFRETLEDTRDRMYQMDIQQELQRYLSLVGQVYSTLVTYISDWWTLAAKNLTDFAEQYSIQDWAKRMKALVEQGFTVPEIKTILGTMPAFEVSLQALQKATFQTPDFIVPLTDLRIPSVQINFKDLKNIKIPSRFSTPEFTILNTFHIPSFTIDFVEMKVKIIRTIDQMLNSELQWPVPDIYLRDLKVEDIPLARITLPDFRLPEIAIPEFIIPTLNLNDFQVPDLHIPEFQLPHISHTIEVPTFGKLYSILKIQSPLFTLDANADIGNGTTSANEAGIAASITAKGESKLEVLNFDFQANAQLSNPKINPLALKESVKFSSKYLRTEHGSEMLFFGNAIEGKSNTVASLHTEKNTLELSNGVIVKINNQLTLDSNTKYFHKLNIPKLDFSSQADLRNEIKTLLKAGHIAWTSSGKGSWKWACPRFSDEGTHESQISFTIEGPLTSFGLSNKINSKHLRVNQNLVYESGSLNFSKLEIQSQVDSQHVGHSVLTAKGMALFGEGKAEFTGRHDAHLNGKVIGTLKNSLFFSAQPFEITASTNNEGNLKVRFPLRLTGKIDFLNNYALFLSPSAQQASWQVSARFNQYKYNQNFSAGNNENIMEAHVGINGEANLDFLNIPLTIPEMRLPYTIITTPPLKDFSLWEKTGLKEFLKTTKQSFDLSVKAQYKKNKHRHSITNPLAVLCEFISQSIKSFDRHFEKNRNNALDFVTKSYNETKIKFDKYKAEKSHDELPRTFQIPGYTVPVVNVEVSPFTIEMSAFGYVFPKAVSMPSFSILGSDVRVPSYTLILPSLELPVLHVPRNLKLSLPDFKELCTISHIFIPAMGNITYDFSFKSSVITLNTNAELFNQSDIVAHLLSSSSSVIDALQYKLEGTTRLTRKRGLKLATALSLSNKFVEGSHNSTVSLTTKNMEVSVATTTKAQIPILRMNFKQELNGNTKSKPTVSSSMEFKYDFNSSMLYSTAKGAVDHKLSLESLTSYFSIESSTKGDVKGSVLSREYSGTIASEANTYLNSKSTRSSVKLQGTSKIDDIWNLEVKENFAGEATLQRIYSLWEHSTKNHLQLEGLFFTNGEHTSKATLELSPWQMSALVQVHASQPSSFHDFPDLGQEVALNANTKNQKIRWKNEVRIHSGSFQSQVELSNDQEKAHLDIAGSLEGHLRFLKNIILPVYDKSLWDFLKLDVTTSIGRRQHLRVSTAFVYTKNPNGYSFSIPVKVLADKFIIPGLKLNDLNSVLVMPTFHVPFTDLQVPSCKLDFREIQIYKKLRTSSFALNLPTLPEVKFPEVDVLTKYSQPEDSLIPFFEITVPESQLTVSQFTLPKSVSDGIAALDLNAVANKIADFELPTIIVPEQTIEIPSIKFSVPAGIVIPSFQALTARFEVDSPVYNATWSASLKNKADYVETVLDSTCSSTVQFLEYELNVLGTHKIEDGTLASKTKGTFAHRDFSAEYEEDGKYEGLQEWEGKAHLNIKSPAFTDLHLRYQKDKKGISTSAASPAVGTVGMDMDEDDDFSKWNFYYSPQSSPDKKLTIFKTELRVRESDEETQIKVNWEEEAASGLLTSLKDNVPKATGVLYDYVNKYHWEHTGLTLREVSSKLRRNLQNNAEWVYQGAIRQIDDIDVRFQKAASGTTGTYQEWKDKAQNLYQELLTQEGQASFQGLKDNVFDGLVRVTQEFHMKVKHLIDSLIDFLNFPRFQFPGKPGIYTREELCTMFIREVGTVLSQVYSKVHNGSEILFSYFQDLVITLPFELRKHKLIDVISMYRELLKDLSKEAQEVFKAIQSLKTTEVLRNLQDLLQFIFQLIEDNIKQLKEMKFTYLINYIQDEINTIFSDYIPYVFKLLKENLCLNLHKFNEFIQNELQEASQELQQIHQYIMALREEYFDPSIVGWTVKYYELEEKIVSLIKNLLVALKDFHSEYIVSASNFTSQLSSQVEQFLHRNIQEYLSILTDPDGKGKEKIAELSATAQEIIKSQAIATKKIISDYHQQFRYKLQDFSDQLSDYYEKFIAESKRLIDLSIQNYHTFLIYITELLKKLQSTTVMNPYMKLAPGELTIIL
From the text: To directly examine protein-protein interactions between LDL and ALK1, surface plasmon resonance (SPR) was used with LDL immobilized to the chip and purified fragments of the Fc-tagged ectodomains for LDLR and ALK1 as analytes. […] To test if LDLR and ALK1 compete for binding to LDL, immobilized LDL was pre-bound with ALK1 or LDLR ectodomains, followed by the addition of the other ectodomain. The binding of […] was not altered when the LDL surface was pretreated with ALK1^ecto (FIG. 2C) or if LDL was pretreated with LDLR^ecto (FIG. 2D).

[2] = biological target: T2, ALK1-fragment crystallizable region (Fc), wild type ALK1 ectodomain (human, UniProt P37023 22-118); experiment: substitution analysis of the 15mer peptide
T2 construct: also called ALK1-Fc; ALK1^ecto-Fc; not shown: Fc tag
T2 sequence (P37023 22-118): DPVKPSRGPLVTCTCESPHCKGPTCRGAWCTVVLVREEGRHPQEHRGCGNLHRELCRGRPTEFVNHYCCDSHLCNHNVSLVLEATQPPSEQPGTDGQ
From the text: FIG. 7 depicts structure function analysis of Site 1. Site 1 was interrogated as a major N-terminal binding site for ALK1 on ApoB 100.

[3] = biological target: T2, ALK1-fragment crystallizable region …; experiment: fluorescence polarization (Fp), recombinant ALK1-Fc and fluorescein labelled peptide
From the text: FIG. 8 depicts development of a fluorescence polarization (Fp) assay of ALK1 binding to ApoB100 peptide Site 1. In order to measure binding affinities of ApoB100 to ALK1 and to facilitate screening molecules that block this interaction, a Fp assay was developed using recombinant ALK1-Fc and an HPLC purified fluorescein labelled peptide, -SEQ ID NO: 8 […] with G being an N-terminal linker to fluorescein and the C-terminal L amidated.

[4] = biological target: T2, ALK1-fragment crystallizable region …; experiment: ApoB100 peptide array, fluorescence
Method: FIG. 6 depicts mapping of ALK1 binding to ApoB100- In order to identify binding sites that mediate the interaction of ALK1 with the core LDL protein, Apo B100, peptide mapping experiments were performed. 4,563 different peptides (15 AA in length overlapped by 14AA) derived from the human ApoB100 sequence were arrayed and incubated with a control-Fc, and ALK1-Fc and binding events measurement by fluorescence. […] The AA sequence of binding for site 1 is SEQ ID NO: 4 QDDCTGDED, site 4 is SEQ ID NO: 5 […] and site 5 is SEQ ID NO: 6 HRDFSAEYEED.

Binder | binding result [4] | further results
B1 |  | Kd [1]: 0.007 µM
EQIQDDCTGDEDYTY [ApoB100 Site 1 15mer peptide EQIQDDCTGDEDYTY] |  | binding result [2]: binds
B2 |  | Kd [3]: 2.45 µM
QDDCTGDED (also called QDDCTGDED) [ApoB100 Site 1] | binds | 
RKRGLKLAT [ApoB100 Site 4] | binds | 
HRDFSAEYEED (also called HRDFSAEYEED) [ApoB100 Site 5] | binds | 
